Common to all, as to conditions: remark: other sources report otherwise
The target of test [1] is T1, recombinant homotrimeric HA, A/Hong Kong/1073/99 H9N2 (Influenza A virus A/Hong Kong/1073/99 (H9N2)). Kind of test: trimeric HA microarray, transfection set 3.
The target in test [2] is T2, recombinant homotrimeric HA, A/Japan/305/57 H2N2 (Influenza A virus A/Japan/305/57 (H2N2)). Kind of test: trimeric HA microarray, transfection set 3.
For test [3], the target named is T3, recombinant homotrimeric HA, A/Netherlands/219/03 H7N7 (Influenza A virus A/Netherlands/219/03 (H7N7)). Put plainly: trimeric HA microarray, transfection set 3.
The target in test [4] is T4, recombinant homotrimeric HA, A/Solomon Islands/3/06 H1N1 (Influenza A virus A/Solomon Islands/3/06 (H1N1)). Kind of test: trimeric HA microarray, transfection set 3.
Test [5] deals with T5, recombinant homotrimeric HA, A/South Carolina/1/18 H1N1 (Influenza A virus A/South Carolina/1/18 (H1N1)). Kind of test: trimeric HA microarray, transfection set 3.
The target in test [6] is T6, recombinant homotrimeric HA, A/Wisconsin/67/05 H3N2 (Influenza A virus A/Wisconsin/67/05 (H3N2)). Put plainly: trimeric HA microarray, transfection set 3.
Test [7] has as its target T7, recombinant homotrimeric HA, A/chicken/Vietnam/NCVD-016/08 H5N1 (Influenza A virus A/chicken/Vietnam/NCVD-016/08 (H5N1)). Kind of test: trimeric HA microarray, transfection set 3.
For test [8], the target named is T8, recombinant homotrimeric HA, A/northern shoveler/California/HKWF115/07 (Influenza A virus A/northern shoveler/California/HKWF115/2007 (H6N1)). Kind of test: trimeric HA microarray, transfection set 3.
Test [9] deals with T9, recombinant homotrimeric HA, A/swine/Ontario/01911-2/99 H4N6 (Influenza A virus A/swine/Ontario/01911-2/99 (H4N6)). Kind of test: trimeric HA microarray, transfection set 3.
Test [10] concerns the target T10, recombinant homotrimeric HA, A/California/4/09 H1N1 (Influenza A virus A/California/4/09 (H1N1)). Kind of test: trimeric HA microarray, transfection set 3.
Test [11] addresses T11, recombinant homotrimeric HA, A/Egypt/3300-NAMRU3/08 H5N1 (Influenza A virus A/Egypt/3300-NAMRU3/08 (H5N1)). Kind of test: trimeric HA microarray, transfection set 3.
The target of test [12] is T12, recombinant homotrimeric HA, A/Hong Kong/2108/03 H9N2 (Influenza A virus A/Hong Kong/2108/03 (H9N2)). Put plainly: trimeric HA microarray, transfection set 3.
The target of test [13] is T13, recombinant homotrimeric HA, A/Indonesia/5/05 H5N1 (Influenza A virus A/Indonesia/5/05 (H5N1)). Put plainly: trimeric HA microarray, transfection set 3.
Test [14] has as its target T14, recombinant homotrimeric HA, A/Vietnam/1203/04 H5N1 (Influenza A virus A/Vietnam/1203/04 (H5N1)). Put plainly: trimeric HA microarray, transfection set 3.
The target in test [15] is T15, recombinant homotrimeric HA, A/common magpie/Hong Kong/5052/07 H5N1 (Influenza A virus A/common magpie/Hong Kong/5052/07 (H5N1)). Kind of test: trimeric HA microarray, transfection set 3.
In test [16] the target is recombinant homotrimeric HA, A/Anhui/1/05 H5N1 (Influenza A virus A/Anhui/1/05 (H5N1)). Kind of test: trimeric HA microarray, transfection set 2.
The target in test [17] is T10, recombinant homotrimeric HA, …. Kind of test: trimeric HA microarray, transfection set 2.
In test [18] the target is T11, recombinant homotrimeric HA, …. Put plainly: trimeric HA microarray, transfection set 2.
The target in test [19] is T1, recombinant homotrimeric HA, A/Hong …. Put plainly: trimeric HA microarray, transfection set 2.
Test [20] deals with T12, recombinant homotrimeric HA, A/Hong …. Kind of test: trimeric HA microarray, transfection set 2.
Test [21] addresses T13, recombinant homotrimeric HA, …. Kind of test: trimeric HA microarray, transfection set 2.
The target of test [22] is T2, recombinant homotrimeric HA, …. Kind of test: trimeric HA microarray, transfection set 2.
Test [23] concerns the target T3, recombinant homotrimeric HA, …. Kind of test: trimeric HA microarray, transfection set 2.
In test [24] the target is T4, recombinant homotrimeric HA, A/Solomon …. Put plainly: trimeric HA microarray, transfection set 2.
Test [25] concerns the target T5, recombinant homotrimeric HA, A/South …. Put plainly: trimeric HA microarray, transfection set 2.
Test [26] addresses T14, recombinant homotrimeric HA, …. Put plainly: trimeric HA microarray, transfection set 2.
Test [27] addresses T6, recombinant homotrimeric HA, …. Put plainly: trimeric HA microarray, transfection set 2.
Test [28] deals with T7, recombinant homotrimeric HA, …. Put plainly: trimeric HA microarray, transfection set 2.
Test [29] addresses T15, recombinant homotrimeric HA, A/common …. Kind of test: trimeric HA microarray, transfection set 2.
The target in test [30] is recombinant homotrimeric HA, A/duck/Yangzhou/02/05 H8N4 (Influenza A virus A/duck/Yangzhou/02/2005 (H8N4)). Put plainly: trimeric HA microarray, transfection set 2.
Test [31] has as its target T8, recombinant homotrimeric HA, A/northern …. Kind of test: trimeric HA microarray, transfection set 2.
The target of test [32] is T9, recombinant homotrimeric HA, …. Kind of test: trimeric HA microarray, transfection set 2.
Test [33] concerns the target T10, recombinant homotrimeric HA, …. Kind of test: trimeric HA microarray, transfection set 5.
Test [34] addresses T2, recombinant homotrimeric HA, …. Kind of test: trimeric HA microarray, transfection set 5.
The target of test [35] is T4, recombinant homotrimeric HA, A/Solomon …. Kind of test: trimeric HA microarray, transfection set 5.
Test [36] concerns the target T6, recombinant homotrimeric HA, …. Kind of test: trimeric HA microarray, transfection set 5.
Test [37] has as its target recombinant soluble homotrimeric HA of A/California/4/09 (H1N1) (Influenza A virus A/California/4/09 (H1N1)). Kind of test: microarray, BCC supernatant IgG, trimeric HA.
Test [38] addresses recombinant soluble homotrimeric HA of A/chicken/Vietnam/NCVD-016/08 (H5N1) (Influenza A virus A/chicken/Vietnam/NCVD-016/08 (H5N1)). Put plainly: microarray, BCC supernatant IgG, trimeric HA.
The target in test [39] is recombinant soluble homotrimeric HA of A/northern shoveler/California/HKWF115/07 (Influenza A virus A/northern shoveler/California/HKWF115/2007). Kind of test: microarray, BCC supernatant IgG, trimeric HA.

B1: TCN-532 (5262_H18) (antibody, V domains shown)
VH: QVQLQESGPGLVKPSETLSLTCTVSGGSVSSETYYWSWIRQPPGKGLEWIGYIYYIGNTDYRPSLKSRVTISLDTSKNQFSLKLSSVTAADTAVYYCARGAYYDSSGYPAFYIWGQGTMVTVSS
VL: QSVLTQPPSVSGAPGQRVTISCTGSSSNIGSDYDVHWYKQLPGTAPKLLIFGNSNRPSGVPDRFSGSKSGTSASLAITGLQAEDEADYYCQSYDSSLSGFHVFGSGTKVTVL
For B1, the Trimeric HA Binding RLU in test [1] turned out to be 48 RLU; in test [2] it was 441 RLU; in test [3], 42 RLU; in [4], 59 RLU; in [5], 311 RLU; in test [6], 9970 RLU. For the same molecule, the figures for the Trimeric HA Binding RLU in [7], in test [8] and in [9] were 29 RLU, 78 RLU and 29 RLU, respectively.

B2: TCN-530 (5248_H10a) (antibody, V domains shown)
VH: QVQLVQSGAEVRKPGSSVKVSCKASGGPFMSYAIGWVRQAPGQGLEWMGGINPVFGRPHYAQKFQGRVTIATDDSTKTSYMELSSLTSEDTGMYYCASRYSRSSPGTFESWGQGTLVTVSS
VL: EIVMTQFPATLSVSPGERVTLSCRASQSVSNNLAWYQQKPGQPPRLLIYDASTRATGVPAKFSGTGSGTEFTLSISSLQSEDFAVYYCQQYHNWPPSYSFGLGTKLEIK
Turning to B2, the Trimeric HA Binding RLU in [10] worked out at 21200 RLU; in [11], 25500 RLU; in test [1], 10200 RLU; in test [12], 44 RLU; in test [13], 25500 RLU; in [2], 5170 RLU. In addition, the Trimeric HA Binding RLU is 13800 RLU in [4]; 17200 RLU in test [5]; 25200 RLU in test [14]; 3050 RLU in test [6]; 18000 RLU in [7]; 5580 RLU in [15]. Further, the results for the Trimeric HA Binding RLU in test [8] and in test [9] were 23500 RLU and 123 RLU, respectively.

B3: TCN-528 (5087_P17) (antibody, V domains shown)
VH: QVQLVQSGSEVKKPGASVKVSCKASGYTFTNYDINWIRQAPGQGLEWMGWINPNSGTTGSAQRFQGRVTITVDTSITTVYMELSSLRSDDTAIYYCARGRELLRLQHFLTDSQSERRDCFDPWGQGTLVTVSS
VL: DIQMTQSPSSLSASVGDRVTITCRANQDIGIYLNWYQQNPGKVPKLLLHGASSLQGGVPSRFSASGSGTDFTLTIHSLQPEDLATYYCQQSRRLPYTFGQGTRVELK
Regarding B3, the Trimeric HA Binding RLU in test [16] was found to be 21200 RLU; in [17], 44600 RLU; in test [18], 36800 RLU; in [19], 322 RLU; in test [20] it was 33600 RLU; in test [21] it was 39700 RLU. Besides, the Trimeric HA Binding RLU is 23100 RLU in [22]; 47200 RLU in [23]; 26900 RLU in test [24]; 25200 RLU in [25]; 23300 RLU in [26]; 46000 RLU in test [27]. In addition, the Trimeric HA Binding RLU amounted to 22600 RLU in [28]; 45300 RLU in [29]; 19800 RLU in [30]; 28400 RLU in test [31]; 49200 RLU in test [32].

B4: TCN-547 (5092_F11) (antibody, V domains shown)
VH: QVQLQESGPGLVKPSQTLSLTCTVSGDSISSVDHYWSWIRQHPVKGLEWIGFMYYSASTYYNPSLKSRVTISTDTSKNQFSLRLSSVTAADTAVYYCARGTCAGDCSLHYYYYGLDVWGQGRTVTVSS
VL: DIQMTQSPSSLSASVGDRVTITCRASQSISSYLNWYQHKPGKAPKVLMYAVSILQSGVPSRFSGSGSGADFTLTISSLQPEDFATYYCQQSYSSPLTFGGGTKVEIK
Regarding B4, the Trimeric HA Binding RLU in test [33] stood at 1470 RLU; in test [34] it was 1350 RLU; in [35], 1080 RLU; in test [36], 6970 RLU. The Trimeric HA Binding: RLU in [37] turned out to be 170 RLU; in test [38], 198 RLU; in [39], 1000 RLU.

The values above are taken from patent publication US20120207760A1.
